Reference: patent US20160152995A1, “METHODS AND COMPOSITIONS TO IMPROVE THE SPREAD OF CHEMICAL SIGNALS IN PLANTS” (PIONEER HI-BRED INTERNATIONAL, INC., priority 2013, published 2016)
Substitutions are numbered along the chain they refer to.

B1: L6-1B03 (protein)
chain: MGSRLDKSKVINSALELLNEVGIEGLTTRKLAQKLGVEQPTLYWHVKNKRALLDALAIEMMDRHATHICPLEGESWQDFLRNNAKSMRCALLSHRDGAKVCLGTRWTEQQYEAAENMLAFLCQQGFSLENALYAVSAVRVFTLGCVLFDQESQVAKEERETPTTASMPPLLRQAWELKDHQGAEPAFLFGLELIICGLEKQLKCESGS
modifications: Sulfonylurea responsive repressor
B2: L6-6F07 (protein)
chain: B1 chain with I68L, N83T, A113S, V135M
modifications: Sulfonylurea responsive repressor
B3: L6-2C09 (protein)
chain: B1 chain with A65Q, I68Y, N83T, Q110L, A113T, M117Q, V135M, S152L
modifications: Sulfonylurea responsive repressor
B4: L6-5G06 (protein)
chain: B1 chain with A65Q, I68Y, A113T, M117Q, S152L, A174G
modifications: Sulfonylurea responsive repressor
B5: L6-4D10: library L6 clone, parent of library L8 hits (protein)
chain: B1 chain with A65Q, I68Y, Q109K, A113S
modifications: Sulfonylurea responsive repressor
notes: library L6 clone, parent of library L8 hits
B6: L6-5F05 (protein)
chain: B1 chain with M117Q, S152L
modifications: Sulfonylurea responsive repressor
B7: L6-5H06 (protein)
chain: B1 chain with A65Q, Q109K, A113T, S152L, L171V
modifications: Sulfonylurea responsive repressor
B8: L6-2D07 (protein)
chain: B1 chain with A65Q, I68F, N83T, A113T, V135M, L171V
modifications: Sulfonylurea responsive repressor
B9: L6-3H02: SuR polypeptide, SEQ ID NO:94 (protein)
chain: B1 chain with I68Y, N83T, Q110H, A113S, L171V, D179V
modifications: Sulfonylurea responsive repressor
B10: L6-5H12 (protein)
chain: B1 chain with I68Y, Q109K, A113T, M117Q, V135M, S152L, L171V
modifications: Sulfonylurea responsive repressor
B11: L8-3F09 (protein)
chain: MARLDKSKVINSALELLNEVGIEGLTTRKLAQKLGVEQPTLYWHVKNKRALLDALAIEMMDRHQTHYSPLEGESWQDFLRNNAKSLRCALLSHRDGAKVCLGTRWTEQQYESAENMLAFLTQQGFSLENALYALTAVRVFTLGWVLFDQESQVAKEERETPTTDSMPPLLRQAWELKDHQGAEPAFLFGLELIIAGLEKQLKRESGS
modifications: Sulfonylurea responsive repressor
B12: L8-2F12 (protein)
chain: B11 chain with L86C, C88N, T135Q, A195R, R203S
modifications: Sulfonylurea responsive repressor
B13: L8-3E05 (protein)
chain: B11 chain with S68C, T135Q, V139I, W144C, A195R
modifications: Sulfonylurea responsive repressor
B14: L8-3D03 (protein)
chain: B11 chain with S68L, L86C, C88N, T135D, W144A, A195R, R203S
modifications: Sulfonylurea responsive repressor
B15: L8-1A04 (protein)
chain: B11 chain with S68L, L86C, C88N, S112T, T135E, V137A, W144A, A195S
modifications: Sulfonylurea responsive repressor
B16: L8-3A05 (protein)
chain: B11 chain with L86C, C88N, L134V, T135S, W144A, A195S, R203S
modifications: Sulfonylurea responsive repressor
B17: L8-1B12 (protein)
chain: B11 chain with L86W, T135E, R203A
modifications: Sulfonylurea responsive repressor
B18: L8-3B08 (protein)
chain: B11 chain with L134V, T135D, V137A, A195R
modifications: Sulfonylurea responsive repressor
B19: L8-3F02 (protein)
chain: B11 chain with L86C, C88R, T121C, L134V, T135S, V139I, W144A
modifications: Sulfonylurea responsive repressor

The molecules below were run on E. coli assay strain Km3. Conditions: M9 assay plates, 0.2 ppm chlorsulfuron, 48 hr at 30° C., ImageJ colony color intensity.
Assay type: cell-based
Procedure: Library L6 was assembled, rescued, ligated into pVER7314, transformed into E. coli KM3 and plated out onto LB carbenicillin/kanamycin, and carbenicillin only control media as before. Library plates were then picked into 42 384-well microtiter plates (˜16,000 clones) containing 60 μl LB carbenicillin (Cb) broth per well. After overnight growth at 37° C. the cultures were stamped onto M9 assay plates containing no inducer, 0.2 ppm, and 2.0 ppm chlorsulfuron as test inducer. Following incubation at 30° C. for ˜48 hrs, putative hits responding to chlorsulfuron treatment as determined by increased blue colony color were re-arrayed into six 96-well microtiter plates and used to stamp a fresh set of M9 assay plates to confirm the above results. For a more detailed analysis of the relative induction by chlorsulfuron, digital photographs were taken of the plates after various time points of incubation at 30° C. and colony color intensity measured using the digital image analysis freeware program ImageJ (Rasband, US National Institutes of Health, Bethesda, Md., USA, rsb.info.nih.gov/ij/, 1997-2007). […] From this analysis sequence-activity relationships were derived. […] Briefly, C at position 100, and Q at positions 108 and 109 strongly correlated with activation, while R at position 138, L at position 170, and A or G at position 173 were highly preferred in clones with the lowest background activity. […] This information will aid in the design of further libraries to improve responsiveness to chlorsulfuron.
Library L8 construction and screening. Fourth round shuffling incorporated the best diversity from Rd3 shuffling (BB1860) as well as computational diversity (Table 14). As diversity was very high the library oligo mix was spiked into the parental hit variant oligo mix (5, 10, and 25% mixes) to titer down the number of residue changes per clone. In addition, to varying residues for Cs activity, seven residues (C68, C86, C88, C121, C144, C195, and C203) were varied with TetR family phylogenetic substitutions in an attempt to reduce the number of cysteine residues in the repressor. The PCR assembled libraries were cloned Sac1/Asc1 into pVER7334. This plasmid encodes PBAD promoter controlled expression of a plant optimized TetR DNA binding domain fused to the wt ligand binding domain of TetR(B) encoded by native Tn10 sequence on a Sac1 to Asc1 fragment. Approximately 15,000 clones were screened for blue colony color on the M9 Xgal assay plates +/−200 ppb Chlorsulfuron (Cs). Clones were ranked by ratio of color with inducer after 24 hrs incubation over colony color without inducer for 48 hrs of incubation. The sequence trend in the overall larger population of hits (first re-array) was that L55, R104, W105 and L170 were maintained while the C144A substitution was highly preferred. Sequence trends within the hit population were then noted with respect to repression, induction and fold induction (which corrects for leakiness).
Mutagenesis reactions were transformed into library strain Km3 and 96 colonies tested for substitution by DNA sequence analysis. Substitutions representing each possible residue at each position were then re-arrayed in triplicate onto M9 X-gal assay plates with 0, 20 and 200 ppb Chlorsulfuron. Plates were incubated at 37° C. for 24 and 48 hrs prior to imaging. Residue substitutions were then ranked by activation (emphasis on 20 ppb Cs) and repression characteristics (emphasis on 48 hr time point). The mutation with the greatest impact on activity was substitution of residue N82 to phenylalanine or tyrosine. […] All other preferred substitutions shown in Table 18 either improved repression or improved sensitivity to inducer without compromising repressor function. Certain residues were indispensible to function such as R104, W105, and W174 as substitutions were not allowed. Other residue positions such as R138 and K177 were also flagged as critical since functional substitutions were extremely limited. […]

Row | Molecule | 0.2 ppm 48 hr (colony color intensity)
1 | B1 | 30.0
2 | B2 | 11.6
3 | B3 | 13.6
4 | B4 | 34.4
5 | B5 | 18.4
6 | B6 | 22.0
7 | B7 | 13.7
8 | B8 | 20.0
9 | B9 | 15.8
10 | B10 | 23.7

Same assay, conditions: M9 assay plates, no inducer, 84 hr at 30° C., ImageJ colony color intensity

Row | Molecule | Control 84 hr (colony color intensity, background)
11 | B1 | 6.6
12 | B2 | 5.1
13 | B3 | 5.2
14 | B4 | 7.0
15 | B5 | 5.0
16 | B6 | 5.4
17 | B7 | 5.1
18 | B8 | 5.8
19 | B9 | 5.6
20 | B10 | 5.7

Same assay, conditions: library L8 hits; M9 Xgal colony assay; 200 ppb Chlorsulfuron; 24 hrs

Row | Molecule | IND = induction with 200 ppb Cs at 24 hrs (blue colony color intensity thru ImageJ analysis)
21 | B11 | 5.6
22 | B12 | 2.7
23 | B13 | 1.4
24 | B14 | 5.9
25 | B15 | 12.2
26 | B16 | 0.3
27 | B17 | 12.5
28 | B18 | 13.0
29 | B19 | 3.4
30 | B5 | 0.2

Same assay, conditions: library L8 hits; M9 Xgal colony assay; ratio IND (200 ppb Cs, 24 hrs) / REP (48 hrs)

Row | Molecule | F. IND = fold induction: induction with 200 ppb Cs at 24 hrs/repression at 48 hrs
31 | B11 | 9.7
32 | B12 | 3.6
33 | B13 | 3.4
34 | B14 | 4.9
35 | B15 | 6.2
36 | B16 | 3.3
37 | B17 | 5.1
38 | B18 | 6.1
39 | B19 | 3.5
40 | B5 | 0.4

Same assay, conditions: library L8 hits; M9 Xgal colony assay; without inducer; 48 hrs

Row | Molecule | REP = repression measured without inducer after 48 hrs (blue colony color intensity thru ImageJ analysis)
41 | B11 | 0.6
42 | B12 | 0.7
43 | B13 | 0.4
44 | B14 | 1.2
45 | B15 | 2.0
46 | B16 | 0.1
47 | B17 | 2.4
48 | B18 | 2.1
49 | B19 | 1.0
50 | B5 | 0.6

Same assay, conditions: ratio of colony color with 0.2 ppm chlorsulfuron at 48 hr over no-inducer control at 84 hr

Row | Molecule | 0.2 ppm 48 hr/Control 84 hr
51 | B1 | 4.6
52 | B2 | 2.3
53 | B3 | 2.6
54 | B4 | 4.9
55 | B5 | 3.7
56 | B6 | 4.1
57 | B7 | 2.7
58 | B8 | 3.4
59 | B9 | 2.8
60 | B10 | 4.2
